Test results as given in paper PMC4320033 (Nature, 2015).

Target: N-ethylmaleimide Sensitive Factor (NSF), Chinese hamster, full-length, His-tag cleaved, reassembled hexamer (Chinese hamster, UniProt P18708 1-744)
Test: cryo-EM structure

Sequence of N-ethylmaleimide Sensitive Factor (NSF), Chinese hamster, full-length, His-tag cleaved, reassembled hexamer (P18708 whole entry): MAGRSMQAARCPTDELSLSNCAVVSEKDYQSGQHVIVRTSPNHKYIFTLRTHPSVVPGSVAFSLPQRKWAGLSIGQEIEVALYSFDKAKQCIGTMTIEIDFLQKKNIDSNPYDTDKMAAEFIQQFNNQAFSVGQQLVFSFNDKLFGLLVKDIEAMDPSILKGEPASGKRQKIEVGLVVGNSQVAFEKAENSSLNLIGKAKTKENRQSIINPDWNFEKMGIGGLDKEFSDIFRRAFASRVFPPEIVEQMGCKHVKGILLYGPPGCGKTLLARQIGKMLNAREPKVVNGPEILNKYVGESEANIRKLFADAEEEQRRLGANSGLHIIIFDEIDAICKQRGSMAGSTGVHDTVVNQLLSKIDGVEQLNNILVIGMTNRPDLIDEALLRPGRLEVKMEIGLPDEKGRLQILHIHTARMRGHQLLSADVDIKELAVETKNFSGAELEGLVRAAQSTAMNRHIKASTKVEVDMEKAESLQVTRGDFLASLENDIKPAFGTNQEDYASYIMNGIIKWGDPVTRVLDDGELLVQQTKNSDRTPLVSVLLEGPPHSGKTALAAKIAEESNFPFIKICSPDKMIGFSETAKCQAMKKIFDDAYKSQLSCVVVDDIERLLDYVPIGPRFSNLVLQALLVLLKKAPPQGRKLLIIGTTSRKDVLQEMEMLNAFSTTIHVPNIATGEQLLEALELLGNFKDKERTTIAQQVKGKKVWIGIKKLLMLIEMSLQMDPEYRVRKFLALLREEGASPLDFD

B1: αSNAP (Soluble NSF Attachment Protein alpha), rat, wild type (natural protein)
chain: MDTSGKQAEAMALLAEAERKVKNSQSFFSGLFGGSSKIEEACEIYARAANMFKMAKNWSAAGNAFCQAAQLHLQLQSKHDAATCFVDAGNAFKKADPQEAINCLMRAIEIYTDMGRFTIAAKHHISIAEIYETELVDVEKAIAHYEQSADYYKGEESNSSANKCLLKVAGYAAQLEQYQKAIDIYEQVGTSAMDSPLLKYSAKDYFFKAALCHFCIDMLNAKLAVQKYEELFPAFSDSRECKLMKKLLEAHEEQNVDSYTESVKEYDSISRLDQWLTTMLLRIKKTIQGDEEDLR
Does B1 bind?
Result: binds
